B1: Autism susceptibility gene 2 protein (Homo sapiens), Q8WXX7 (parent)
chain: MDGPTRGHGLRKKRRSRSQRDRERRSRGGLGAGAAGGGGAGRTRALSLASSSGSDKEDNGKPPSSAPSRPRPPRRKRRESTSAEEDIIDGFAMTSFVTFEALEKDVALKPQERVEKRQTPLTKKKREALTNGLSFHSKKSRLSHPHHYSSDRENDRNLCQHLGKRKKMPKALRQLKPGQNSCRDSDSESASGESKGFHRSSSRERLSDSSAPSSLGTGYFCDSDSDQEEKASDASSEKLFNTVIVNKDPELGVGTLPEHDSQDAGPIVPKISGLERSQEKSQDCCKEPIFEPVVLKDPCPQVAQPIPQPQTEPQLRAPSPDPDLVQRTEAPPQPPPLSTQPPQGPPEAQLQPAPQPQVQRPPRPQSPTQLLHQNLPPVQAHPSAQSLSQPLSAYNSSSLSLNSLSSSRSSTPAKTQPAPPHISHHPSASPFPLSLPNHSPLHSFTPTLQPPAHSHHPNMFAPPTALPPPPPLTSGSLQVAGHPAGSTYSEQDILRQELNTRFLASQSADRGASLGPPPYLRTEFHQHQHQHQHTHQHTHQHTFTPFPHAIPPTAIMPTPAPPMFDKYPTKVDPFYRHSLFHSYPPAVSGIPPMIPPTGPFGSLQGAFQPKTSNPIDVAARPGTVPHTLLQKDPRLTDPFRPMLRKPGKWCAMHVHIAWQIYHHQQKVKKQMQSDPHKLDFGLKPEFLSRPPGPSLFGAIHHPHDLARPSTLFSAAGAAHPTGTPFGPPPHHSNFLNPAAHLEPFNRPSTFTGLAAVGGNAFGGLGNPSVTPNSMFGHKDGPSVQNFSNPHEPWNRLHRTPPSFPTPPPWLKPGELERSASAAAHDRDRDVDKRDSSVSKDDKERESVEKRHSSHPSPAPVLPVNALGHTRSSTEQIRAHLNTEAREKDKPKERERDHSESRKDLAADEHKAKEGHLPEKDGHGHEGRAAGEEAKQLARVPSPYVRTPVVESARPNSTSSREAEPRKGEPAYENPKKSSEVKVKEERKEDHDLPPEAPQTHRASEPPPPNSSSSVHPGPLASMPMTVGVTGIHPMNSISSLDRTRMMTPFMGISPLPGGERFPYPSFHWDPIRDPLRDPYRELDIHRRDPLGRDFLLRNDPLHRLSTPRLYEADRSFRDREPHDYSHHHHHHHHPLSVDPRREHERGGHLDERERLHMLREDYEHTRLHSVHPASLDGHLPHPSLITPGLPSMHYPRISPTAGNQNGLLNKTPPTAALSAPPPLISTLGGRPVSPRRTTPLSAEIRERPPSHTLKDIEAR
B2: Autism susceptibility gene 2 protein homolog (Mus musculus), A0A087WPF7 (parent)
chain: MDGPTRGHGLRKKRRSRSQRDRERRSRAGLGTGAAGGIGAGRTRAPSLASSSGSDKEDNGKPPSSAPSRPRPPRRKRRESTSAEEDIIDGFAMTSFVTFEALEKDVAVKPQERAEKRQTPLTKKKREALTNGLSFHSKKSRLSHSHHYSSDRENDRNLCQHLGKRKKMPKGLRQLKPGQNSCRDSDSESASGESKGFQRSSSRERLSDSSAPSSLGTGYFCDSDSDQEEKASDASSEKLFNTVLVNKDPELGVGALPEHNQDAGPIVPKISGLERSQEKSQDCCKEPVFEPVVLKDPHPQLPQLPSQAQAEPQLQIPSPGPDLVPRTEAPPQFPPPSTQPAQGPPEAQLQPAPLPQVQQRPPRPQSPSHLLQQTLPPVQSHPSSQSLSQPLSAYNSSSLSLNSLSSRSSTPAKTQPAPPHISHHPSASPFPLSLPNHSPLHSFTPTLQPPAHSHHPNMFAPPTALPPPPPLTSGSLQVPGHPAGSTYSEQDILRQELNTRFLASQSADRGASLGPPPYLRTEFHQHQHQHQHTHQHTHQHTFTPFPHAIPPTAIMPTPAPPMFDKYPTKVDPFYRHSLFHSYPPAVSGIPPMIPPTGPFGSLQGAFQPKTSNPIDVAARPGTVPHTLLQKDPRLTDPFRPMLRKPGKWCAMHVHIAWQIYHHQQKVKKQMQSDPHKLDFGLKPEFLSRPPGPSLFGAIHHPHDLARPSTLFSAAGAAHPTGTPFGPPPHHSNFLNPAAHLEPFNRPSTFTGLAAVGGNAFGGLGNPSVTPNSVFGHKDSPSVQNFSNPHEPWNRLHRTPPSFPTPPPWLKPGELERSASAAAHDRDRDVDKRDSSVSKDDKERESVEKRHPSHPSPAPPVPVSALGHNRSSTDPTTRGHLNTEAREKDKPKEKERDHSGSRKDLTTEEHKAKESHLPERDGHSHEGRAAGEEPKQLSRVPSPYVRTPGVDSTRPNSTSSREAEPRKGEPAYENPKKNAEVKVKEERKEDHDLPTEAPQAHRTSEAPPPSSSASASVHPGPLASMPMTVGVTGIHAMNSIGSLDRTRMVTPFMGLSPIPGGERFPYPSFHWDPMRDPLRDPYRDLDMHRRDPLGRDFLLRNDPLHRLSTPRLYEADRSFRDREPHDYSHHHHHHHHPLAVDPRREHERGGHLDERERLHVLREDYEHPRLHPVHPASLDGHLPHPSLLTPGLPSMHYPRISPTAGHQNGLLNKTPPTAALSAPPPLISTLGGRPGSPRRTTPLSAEIRERPPSHTLKDIEAR

How the values were obtained:
[1] = variants of: B1; conditions: with ep300_human EP300, Q09472
ring2_human RNF2, Q99496 = variants of: B1; conditions: with ring2_human RNF2, Q99496
[2] = variants of: B1; conditions: with ep300_human EP300, Q09472; remark: listed apart in the source
[3] = variants of: B2; conditions: with ep300_mouse Ep300, B2RWS6
ring2_mouse Rnf2, Q9CQJ4 = variants of: B2; conditions: with ring2_mouse Rnf2, Q9CQJ4
[4] = variants of: B2; conditions: with nf2l1_mouse Nfe2l1, Q61985
nf2l1_mouse Nfe2l1, Q61985, sequence (Q61985 whole entry): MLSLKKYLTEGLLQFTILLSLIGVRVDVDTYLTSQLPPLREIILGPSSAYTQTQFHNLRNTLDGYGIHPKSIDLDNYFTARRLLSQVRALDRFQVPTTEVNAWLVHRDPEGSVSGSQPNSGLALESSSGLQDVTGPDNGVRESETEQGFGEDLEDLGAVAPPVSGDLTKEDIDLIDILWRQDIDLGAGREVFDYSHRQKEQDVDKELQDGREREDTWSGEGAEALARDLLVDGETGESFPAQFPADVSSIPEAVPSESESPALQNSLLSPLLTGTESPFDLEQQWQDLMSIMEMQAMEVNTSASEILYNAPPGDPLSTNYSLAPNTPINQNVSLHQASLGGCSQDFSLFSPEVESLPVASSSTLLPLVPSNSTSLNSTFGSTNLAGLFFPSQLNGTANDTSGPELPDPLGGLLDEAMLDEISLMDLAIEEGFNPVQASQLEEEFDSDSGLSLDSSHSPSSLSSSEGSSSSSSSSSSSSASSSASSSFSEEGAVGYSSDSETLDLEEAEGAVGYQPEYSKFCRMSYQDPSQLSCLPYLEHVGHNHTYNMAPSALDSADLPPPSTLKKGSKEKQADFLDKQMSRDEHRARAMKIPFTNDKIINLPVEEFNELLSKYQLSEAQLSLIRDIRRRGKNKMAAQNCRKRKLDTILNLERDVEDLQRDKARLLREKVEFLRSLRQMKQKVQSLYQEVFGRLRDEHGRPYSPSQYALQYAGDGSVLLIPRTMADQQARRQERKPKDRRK

ep300_human EP300, Q09472, sequence (Q09472 whole entry): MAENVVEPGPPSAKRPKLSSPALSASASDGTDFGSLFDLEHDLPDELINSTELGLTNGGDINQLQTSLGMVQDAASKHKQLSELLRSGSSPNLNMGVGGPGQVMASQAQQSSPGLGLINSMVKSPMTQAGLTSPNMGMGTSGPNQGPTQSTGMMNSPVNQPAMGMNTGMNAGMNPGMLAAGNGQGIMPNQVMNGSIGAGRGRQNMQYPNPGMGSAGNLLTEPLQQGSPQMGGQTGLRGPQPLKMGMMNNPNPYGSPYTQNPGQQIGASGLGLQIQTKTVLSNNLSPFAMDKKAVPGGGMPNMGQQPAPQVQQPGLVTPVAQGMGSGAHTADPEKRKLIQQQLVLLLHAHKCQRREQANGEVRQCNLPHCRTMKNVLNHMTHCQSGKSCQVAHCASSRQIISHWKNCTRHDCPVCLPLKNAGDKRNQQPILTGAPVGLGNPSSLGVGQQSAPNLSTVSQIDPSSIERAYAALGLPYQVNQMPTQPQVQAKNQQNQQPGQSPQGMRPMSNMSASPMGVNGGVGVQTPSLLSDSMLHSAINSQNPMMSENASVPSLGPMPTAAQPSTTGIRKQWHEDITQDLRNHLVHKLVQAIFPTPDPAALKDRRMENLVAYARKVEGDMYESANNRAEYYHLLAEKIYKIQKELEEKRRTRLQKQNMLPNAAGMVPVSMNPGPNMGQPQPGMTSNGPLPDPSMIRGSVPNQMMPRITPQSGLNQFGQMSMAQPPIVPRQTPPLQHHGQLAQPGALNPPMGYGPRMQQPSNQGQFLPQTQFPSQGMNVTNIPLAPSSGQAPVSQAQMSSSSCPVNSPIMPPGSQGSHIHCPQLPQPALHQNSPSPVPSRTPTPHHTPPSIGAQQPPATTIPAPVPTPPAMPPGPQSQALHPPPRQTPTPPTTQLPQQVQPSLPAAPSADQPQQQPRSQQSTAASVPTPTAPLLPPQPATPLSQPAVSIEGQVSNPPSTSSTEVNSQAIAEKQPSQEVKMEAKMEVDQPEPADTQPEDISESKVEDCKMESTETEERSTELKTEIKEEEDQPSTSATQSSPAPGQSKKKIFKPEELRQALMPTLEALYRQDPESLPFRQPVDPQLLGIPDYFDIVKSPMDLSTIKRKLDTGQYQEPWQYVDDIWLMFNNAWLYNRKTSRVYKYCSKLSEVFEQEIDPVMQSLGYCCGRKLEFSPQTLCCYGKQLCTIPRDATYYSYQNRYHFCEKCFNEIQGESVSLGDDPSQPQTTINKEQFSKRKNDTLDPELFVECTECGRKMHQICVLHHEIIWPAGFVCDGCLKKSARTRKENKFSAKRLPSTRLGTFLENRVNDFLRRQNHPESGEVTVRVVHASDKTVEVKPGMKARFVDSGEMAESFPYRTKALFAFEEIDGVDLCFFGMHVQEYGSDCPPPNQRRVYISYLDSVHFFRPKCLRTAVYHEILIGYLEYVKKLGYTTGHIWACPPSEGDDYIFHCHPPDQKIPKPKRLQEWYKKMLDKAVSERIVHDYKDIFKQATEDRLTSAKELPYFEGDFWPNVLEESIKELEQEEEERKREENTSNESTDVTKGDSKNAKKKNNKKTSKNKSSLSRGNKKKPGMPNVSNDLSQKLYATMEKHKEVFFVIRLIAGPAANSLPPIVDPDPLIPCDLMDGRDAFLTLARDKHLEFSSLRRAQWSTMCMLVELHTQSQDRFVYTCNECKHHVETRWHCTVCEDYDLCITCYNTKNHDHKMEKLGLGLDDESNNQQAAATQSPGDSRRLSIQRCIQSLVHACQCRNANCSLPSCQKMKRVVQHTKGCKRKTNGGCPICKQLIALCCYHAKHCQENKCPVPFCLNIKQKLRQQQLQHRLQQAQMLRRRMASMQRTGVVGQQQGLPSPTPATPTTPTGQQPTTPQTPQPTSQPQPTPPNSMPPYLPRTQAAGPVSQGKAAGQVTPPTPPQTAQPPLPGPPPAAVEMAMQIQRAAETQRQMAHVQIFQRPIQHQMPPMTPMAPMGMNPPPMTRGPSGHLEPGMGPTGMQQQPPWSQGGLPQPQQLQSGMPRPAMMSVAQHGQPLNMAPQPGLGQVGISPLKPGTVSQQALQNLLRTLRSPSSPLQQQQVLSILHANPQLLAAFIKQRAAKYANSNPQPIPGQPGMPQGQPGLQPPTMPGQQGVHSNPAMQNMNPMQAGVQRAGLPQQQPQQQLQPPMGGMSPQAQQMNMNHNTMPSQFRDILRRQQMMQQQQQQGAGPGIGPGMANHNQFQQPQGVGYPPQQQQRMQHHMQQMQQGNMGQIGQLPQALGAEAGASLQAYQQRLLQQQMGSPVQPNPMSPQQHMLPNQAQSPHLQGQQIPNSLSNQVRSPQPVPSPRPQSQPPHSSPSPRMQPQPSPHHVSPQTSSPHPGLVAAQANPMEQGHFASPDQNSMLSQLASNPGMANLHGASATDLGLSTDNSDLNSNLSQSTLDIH
ring2_human RNF2, Q99496, sequence (Q99496 whole entry): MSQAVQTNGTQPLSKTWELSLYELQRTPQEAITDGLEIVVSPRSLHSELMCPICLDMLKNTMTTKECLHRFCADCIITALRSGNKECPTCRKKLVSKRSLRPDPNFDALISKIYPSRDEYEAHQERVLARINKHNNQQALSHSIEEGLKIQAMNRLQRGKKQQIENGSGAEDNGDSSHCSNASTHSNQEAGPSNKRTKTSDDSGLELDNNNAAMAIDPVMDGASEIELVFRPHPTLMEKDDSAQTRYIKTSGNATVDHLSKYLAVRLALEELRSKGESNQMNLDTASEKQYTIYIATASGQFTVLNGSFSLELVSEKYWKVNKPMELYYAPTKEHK
ring2_mouse Rnf2, Q9CQJ4, sequence (Q9CQJ4 whole entry): as the sequence (Q99496 whole entry) above, with M214V counted along it

Variant	effect of a mutation on the interaction [1]	effect of a mutation on the interaction (ring2_human RNF2, Q99496)	effect of a mutation on the interaction [2]	effect of a mutation on the interaction [3]	effect of a mutation on the interaction (ring2_mouse Rnf2, Q9CQJ4)	effect of a mutation on the interaction [4]
P517L	decreasing interaction	increasing interaction	with no effect			
T534P	disrupting interaction	with no effect				
T533P				disrupting interaction	with no effect	with no effect
